Experimental data: article doi:10.1101/2021.04.22.440577 (bioRxiv, 2021)

Key:
[1] = biological target: 4-fold tyrosine-phosphorylated C-Tir (pC-Tir), EPEC Tir residues 388-550 phosphorylated by Fyn (enteropathogenic Escherichia coli (EPEC)) (UniProt B7UM99); assay: NMR titration
SEC + other: SAXS = biological target: the molecule itself; assay: SEC + other: SAXS

4-fold tyrosine-phosphorylated C-Tir (pC-Tir), EPEC Tir residues 388-550 phosphorylated by Fyn (enteropathogenic Escherichia coli (EPEC)), sequence (B7UM99 388-550): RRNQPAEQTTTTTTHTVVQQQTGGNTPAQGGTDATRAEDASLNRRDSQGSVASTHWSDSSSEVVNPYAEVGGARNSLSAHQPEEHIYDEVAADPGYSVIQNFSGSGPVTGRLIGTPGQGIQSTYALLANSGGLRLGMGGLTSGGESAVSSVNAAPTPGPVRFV

Molecule	apparent local KD of the remaining pY sites (pY474, pY483, pY511) [1]	fold enhancement of binding at the Y511 ITIM against unphosphorylated C-Tir [1]	stoichiometry N (SEC + other: SAXS)
C-terminal SH2 domain (C-SH2) of host tyrosine phosphatase SHP-1 (domain or fragment)	3 to 9 μM	10 fold	
N-terminal cytosolic region of EPEC Tir (N-Tir, residues 1-233) (domain or fragment, enteropathogenic Escherichia coli (EPEC), UniProt B7UM99 1-233, looked up) MPIGNLGNNVNGNHLIPPAPPLPSQTDGAARGGTGHLISSTGALGSRSLFSPLRNSMADSVDSRDIPGLPTNPSRLAAATSETCLLGGFEVLHDKGPLDILNTQIGPSAFRVEVQADGTHAAIGEKNGLEVSVTLSPQEWSSLQSIDTEGKNRFVFTGGRGGSGHPMVTVASDIAEARTKILAKLDPDNHGGRQPKDVDTRSVGVGSASGIDDGVVSETHTSTTNSSVRSDPK			2
Structured central part of N-Tir (N-Tir 60-200, NS-Tir) (domain or fragment, enteropathogenic Escherichia coli (EPEC), UniProt B7UM99 60-200, looked up) SVDSRDIPGLPTNPSRLAAATSETCLLGGFEVLHDKGPLDILNTQIGPSAFRVEVQADGTHAAIGEKNGLEVSVTLSPQEWSSLQSIDTEGKNRFVFTGGRGGSGHPMVTVASDIAEARTKILAKLDPDNHGGRQPKDVDT			2
